Key:
[1] = Clearance of radiolabelled neurotrophin-3 by whole cochlear gamma counts; type: in vivo
Experimental: In vivo studies were carried out to determine the drug payload and clearance of neurotrophin delivered in a supraparticle implanted into the ear after 4 hr, 3 day and 7 days of implantation. The objective was to determine the amount of neurotrophin remaining in the cochlea over time.
1 SP containing radiolabelled neurotrophin-3 was implanted into each cochlea. Cochleae were harvested following 4 hrs (n=5), 3 d (n=7) or 7 d (n=4). Whole cochlear gamma counts were measured to determine the clearance of neurotrophin-3 over time. After 1 week of implantation each SP contained ˜2 ug of neurotrophin-3 (˜40%) of initial loaded amount.
Further experiments (n=2) were carried out to examine clearance of neurotrophin-3 following round window delivery. 3 days after implantation—whole cochlear measurements were again used to determine the clearance of neurotrophin-3 from the round window membrane.

[2] = BDNF perilymph concentration by ELISA after SP implantation; type: in vivo; settings: 2 electrosprayed SPs loaded with BDNF, n=2
Experimental: Next, 2 SPs produced by electrospraying were loaded with BDNF and placed inside the cochlea. Serial perilymph samples (1 ul samples) were obtained from the apex of the cochlea at three days and one week post implantation (sampling techniques described in Plontke et al. (2007) Laryngoscope. 117:1191-1198) and samples were analysed using an ELISA.

[3] = after 1 week of implantation, 1 SP intracochlear

Molecule: neurotrophin-3
- neurotrophin-3 remaining ([1]; 3 days after implantation, round window delivery): 47.4%
- neurotrophin-3 remaining ([1]; 3 days, intracochlear delivery): 56%
- amount of neurotrophin-3 remaining per SP [1, 3]: ~2 µg
- neurotrophin-3 remaining (% of initial loaded amount) [1, 3]: ~40%

B1: brain derived neurotrophic factor (protein, UniProt P23560 19-247, looked up)
Neurotrophic factor BDNF …: APMKEANIRGQGGLAYPGVRTHGTLESVNGPKAGSRGLTSLADTFEHVIEELLDEDQKVRPNEENNKDADLYTSRVMLSSQVPLEPPLLFLLEEYKNYLDAANMSMRVRRHSDPARRGELSVCDSISEWVTAADKKTAVDMSGGTVTVLEKVPVSKGQLKQYFYETKCNPMGYTKEGCRGIDKRHWNSQCRTTQSYVRALTMDSKKRIGWRFIRIDTSCVCTLTIKRGR
notes: neurotrophin; BDNF Human Protein (Geneway)
- peak BDNF perilymph concentration inside the cochlea ([2]; after 3 days): 1707 ng/mL
- peak BDNF perilymph concentration inside the cochlea ([2]; after 7 days): 775 ng/mL

Source: patent publication US12048733B2, “Method of treatment” (THE BIONICS INSTITUTE OF AUSTRALIA, priority 2017, dated 2024)
